Laboratory results: patent US20200024330A1

Key:
Assay in all cases: cell-based or functional assay
[1] = target: HIV-1 94UG103 envelope glycoprotein (Env) on pseudovirus (HIV-1)
[2] = target: HIV-1 Env of isolate 92UG001 (HIV-1)
[3] = target: HIV-1 Env of isolate 92UG046 (HIV-1)
[4] = target: HIV-1 Env of isolate 92UG114 (HIV-1)
[5] = target: HIV-1 Env of isolate 92WR026 (HIV-1)
[6] = target: HIV-1 Env of isolate 97ZA012 (HIV-1)
[7] = target: HIV-1 Env of isolate CMU02 (CRF01_AE), on pseudovirus (HIV-1)
[8] = target: HIV-1 Env of isolate MGRM-AG-002 (CRF_AG), on pseudovirus (HIV-1)
[9] = target: HIV-1 Env of isolate MGRM-AG-003 (CRF_AG), on pseudovirus (HIV-1)
[10] = target: HIV-1 Env of isolate MGRM-AG-006 (CRF_AG), on pseudovirus (HIV-1)
[11] = target: HIV-1 Env of isolate MGRM-C-012 (HIV-1)
[12] = target: HIV-1 Env of isolate MGRM-C-022 (HIV-1)
[13] = target: HIV-1 Env of isolate MGRM-D-003 (HIV-1)
[14] = target: HIV-1 Env of isolate MGRM-D-013 (HIV-1)
[15] = target: HIV-1 Env of isolate MGRM-F1-008 (subtype F), on pseudovirus (HIV-1)
[16] = target: HIV-1 Env of isolate MGRM-F1-010 (subtype F), on pseudovirus (HIV-1)
[17] = target: HIV-1 Env of isolate MGRM-F1-013 (subtype F), on pseudovirus (HIV-1)
[18] = target: HIV-1 Env of isolate MGRM-G-024 (HIV-1)
[19] = target: HIV-1 JR-CSF Env G471A (HIV-1 (isolate JR-CSF)) (UniProt P20871)
[20] = target: HIV-1 JR-CSF Env V127A (HIV-1 (isolate JR-CSF)) (UniProt P20871)
[21] = target: HIV-1 JR-CSF Env Y177A (HIV-1 (isolate JR-CSF)) (UniProt P20871)

| Substance | IC50 [2] [µg/mL] | IC50 [3] [µg/mL] | IC50 [4] [µg/mL] | neutralization IC50 [5] [µg/mL] | IC50 [6] [µg/mL] | IC50, single-round pseudovirus neutralization [7] [µg/mL] | IC50, single-round pseudovirus neutralization [8] [µg/mL] | IC50, single-round pseudovirus neutralization [9] [µg/mL] | IC50, single-round pseudovirus neutralization [10] [µg/mL] | IC50 [11] [µg/mL] | IC50 [12] [µg/mL] | IC50 [13] [µg/mL] | IC50 [14] [µg/mL] | IC50, pseudovirus neutralization [15] [µg/mL] | IC50, pseudovirus neutralization [16] [µg/mL] | IC50, pseudovirus neutralization [17] [µg/mL] | IC50, pseudovirus neutralization [18] [µg/mL] | Fold IC50 increase relative to wild-type [19] [fold] | Fold IC50 increase relative to wild-type [20] [fold] | Fold IC50 increase relative to wild-type [21] [fold] | other results |
| --- | --- | --- | --- | --- | --- | --- | --- | --- | --- | --- | --- | --- | --- | --- | --- | --- | --- | --- | --- | --- | --- |
| 5147_N06 (PGT-130) (antibody) | > 50 | > 50 | > 50 | 0.037 | 1.32 | > 50 | > 50 | 0.041 | 0.009 | > 50 | 0.127 | 0.651 | 0.429 | 0.065 | > 50 | > 50 | 5.84 | 0.8 | 0.8 | 3.6 | IC50 (ug/ml), neutralizing activity [1]: 0.635 µg/mL |
| 5114_A19 (PGT-128) (antibody) | > 50 | > 50 | 0.083 | 0.01 | 0.019 | > 50 | 4.99 | 34.8 | 0.009 | 0.058 | 0.042 | 0.019 | 8.85 | > 50 | 16.7 | 12.7 | 0.095 | 0.9 | 1.1 | 1.4 | – |
